Here are results for seven molecules from patent US20220298237A1 (KEIO UNIVERSITY, published 2022).

In assay [1] the target is T1, mouse AQP3 in lysate of HEK293T cells overexpressing mouse AQP3 and a myc-biotinylated tag (mouse, UniProt Q8R2N1 1-292).
T1 construct: Cell lysate used in ELISA; also called AQP3 containing cell lysate; not shown: myc-biotinylated tag
T1 sequence (looked up): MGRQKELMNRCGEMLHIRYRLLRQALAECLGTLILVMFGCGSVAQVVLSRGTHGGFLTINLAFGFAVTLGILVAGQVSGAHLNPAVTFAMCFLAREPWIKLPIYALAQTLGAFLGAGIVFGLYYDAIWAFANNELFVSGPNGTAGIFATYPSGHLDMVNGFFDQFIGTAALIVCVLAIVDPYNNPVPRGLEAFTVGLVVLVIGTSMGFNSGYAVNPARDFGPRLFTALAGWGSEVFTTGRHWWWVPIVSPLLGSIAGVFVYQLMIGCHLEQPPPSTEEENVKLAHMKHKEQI
Put plainly: ELISA on lysate of HEK293T cells overexpressing mouse AQP3 (FIG. 3). An excerpt:
Cell lysate from HEK293T cells overexpressing mouse AQP3 and a myc-biotinylated tag was used in an ELISA assay to measure the binding of antibodies A, B, C, D, E, F, G, H, J, and K to AQP3. Cell lysate from HEK293T cells overexpressing the myc-biotinylated tag but not AQP3 was used as control. […] C. Antibody binding to AQP3 expressing cells
(In general: ELISA stands for enzyme-linked immunosorbent assay.)

In assay [2] the target is T2, oligopeptide ATYPSGHLDM (SEQ ID NO: 1) (human and mouse).
T2 construct: Synthetic peptide; positions 148 to 157 of the human AQP3 polypeptide, identical in mouse; also called peptide used for immunization; oligopeptide 5
T2 peptide: ATYPSGHLDM
Put plainly: ELISA on the immunogen peptide (FIG. 2).

In assay [3] the target is T3, human aquaporin 3 (AQP3) on cells (human, UniProt Q92482 1-292).
T3 construct: whole, on cells; Water channel membrane protein; also called human AQP3; AQP3 on HaCaT cells
T3 sequence (looked up): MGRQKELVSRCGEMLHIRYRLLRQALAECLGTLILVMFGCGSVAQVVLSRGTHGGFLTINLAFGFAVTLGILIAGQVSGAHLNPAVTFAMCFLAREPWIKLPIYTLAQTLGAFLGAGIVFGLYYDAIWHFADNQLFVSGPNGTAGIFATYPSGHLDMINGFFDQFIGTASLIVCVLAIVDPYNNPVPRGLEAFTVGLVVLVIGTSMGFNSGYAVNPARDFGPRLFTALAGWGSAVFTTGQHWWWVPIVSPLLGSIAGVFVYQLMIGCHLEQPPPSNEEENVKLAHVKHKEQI
Put plainly: fluorescence binding assay on HaCaT cells, 10 µg/mL (FIG. 5C).

The target in assay [4] is T4, mouse aquaporin 3 (AQP3) on cells (mouse, UniProt Q8R2N1 1-292).
T4 construct: whole, on cells; Water channel membrane protein; also called mouse AQP3; AQP3 on PAM212 cells
T4 sequence (looked up): T1 sequence (looked up)
Put plainly: fluorescence binding assay on PAM212 cells, 10 µg/mL (FIG. 5B). As for the experimental part:
PAM212 and macrophage cells were reacted with each anti AQP3 antibody (0.1, 1, or 10 μg/mL) at 4° C. for 1 hour. After washing the cells, a fluorescent-labeled secondary antibody was added and the reaction was allowed to occur additionally for 1 hour (4° C.). By measuring the fluorescence intensity, the binding property of each anti AQP3 antibody to cells was obtained.
The assay was also performed using PAM212 cells and antibodies A, B, C, D, E, F, G, H, and J at a concentration of 10 μg/mL. Binding of antibodies C, D, E, G, and J to PAM212 cells was statistically significant.

Assay [5] deals with T5, oligopeptide TAGIFATYPSGHLDM (SEQ ID NO: 105).
T5 construct: Synthetic peptide, part of Loop C of AQP3
T5 peptide: TAGIFATYPSGHLDM
Kind of assay: ELISA on coated peptide. As for the experimental part: (§1) To determine the important amino acid residues of an epitope in Loop C involved in binding to specific AQP3 antibody clones, peptides of varying lengths were produced. The sequences of these peptides are shown in column 2 of Table 4.
(§2) The various peptides and AQP3 antibody clones were subjected to ELISA binding analyses. […] The microtiter wells (Costar 2690) were coated with 50 μL of each peptide at 4° C. overnight. The wells were washed 3 times with PBS and blocked with 100 μL of 1% BSA/PBS at 37° C. for 1 hour. Each antibody was adjusted to 1 μg/mL in 1% SBA/PBS as above then serially diluted 1:5 in 1% BSA/PBS. The blocker was discarded and the wells were incubated with 50 μL of antibodies at 37° C. for 1.5 hours. The wells were washed 3 times with PBS and mouse antibodies were detected with 50 μL of goat anti-mouse IgG (H+L) HRP conjugate (ThermoFisher 31438) (1:5,000 in 1% BSA/PBS) and rabbit antibodies were detected with 50 μL of goat anti-rabbit IgG (H+L) HRP conjugate (ThermoFisher 31462) (1:5,000 in 1% BSA/PBS) at 37° C. for 1 hour. The wells were washed 3 times with PBS and developed with 50 μL of HRP substrate at RT for 5 min then stopped with 50 μL of 2N sulfuric acid and binding was measured with a plate reader.

Assay [6] has as its target T6, oligopeptide SGPNGTAGIFATYPS (SEQ ID NO: 94).
T6 construct: Synthetic peptide, part of Loop C of AQP3
T6 peptide: SGPNGTAGIFATYPS
Put plainly: ELISA on coated peptide. The method, then:
as §1, §2

The target in assay [7] is T7, oligopeptide PSGHLDM (SEQ ID NO: 98).
T7 construct: Synthetic peptide, part of Loop C of AQP3
T7 peptide: PSGHLDM
Kind of assay: ELISA on coated peptide. The method, then:
as §1, §2

For assay [8], the target named is T8, oligopeptide GIFATYPSGHLDM (SEQ ID NO: 107).
T8 construct: Synthetic peptide, part of Loop C of AQP3
T8 peptide: GIFATYPSGHLDM
Kind of assay: ELISA on coated peptide. The method, then:
as §1, §2

The target of assay [9] is T9, oligopeptide ATYPSGH (SEQ ID NO: 103).
T9 construct: Synthetic peptide, part of Loop C of AQP3
T9 peptide: ATYPSGH
Put plainly: ELISA on coated peptide. As for the experimental part:
as §1, §2

In assay [10] the target is T10, oligopeptide GHLDM (SEQ ID NO: 100).
T10 construct: Synthetic peptide, part of Loop C of AQP3
T10 peptide: GHLDM
Put plainly: ELISA on coated peptide. The method, then: as §1, §2

In assay [11] the target is T11, oligopeptide ATYPSG (SEQ ID NO: 104).
T11 construct: Synthetic peptide, part of Loop C of AQP3
T11 peptide: ATYPSG
Kind of assay: ELISA on coated peptide. As for the experimental part: as §1, §2

In assay [12] the target is T12, oligopeptide ATYPSGHL (SEQ ID NO: 102).
T12 construct: Synthetic peptide, part of Loop C of AQP3
T12 peptide: ATYPSGHL
Kind of assay: ELISA on coated peptide. The method, then:
as §1, §2

The target in assay [13] is T13, oligopeptide SGHLDM (SEQ ID NO: 99).
T13 construct: Synthetic peptide, part of Loop C of AQP3
T13 peptide: SGHLDM
Put plainly: ELISA on coated peptide. The method, then:
as §1, §2

The target in assay [14] is T2, oligopeptide ATYPSGHLDM (SEQ ID NO: 1). Put plainly: ELISA on coated peptide. The method, then: as §1, §2
Assay [15] has as its target T14, oligopeptide IFATYPSGHLDM (SEQ ID NO: 108).
T14 construct: Synthetic peptide, part of Loop C of AQP3
T14 peptide: IFATYPSGHLDM
Put plainly: ELISA on coated peptide. As for the experimental part: as §1, §2

Assay [16] deals with T15, oligopeptide ATYPSGHLD (SEQ ID NO: 101).
T15 construct: Synthetic peptide, part of Loop C of AQP3
T15 peptide: ATYPSGHLD
Kind of assay: ELISA on coated peptide. The method, then: as §1, §2

Assay [17] addresses T16, oligopeptide FATYPSGHLDM (SEQ ID NO: 109).
T16 construct: Synthetic peptide, part of Loop C of AQP3
T16 peptide: FATYPSGHLDM
Kind of assay: ELISA on coated peptide. The method, then:
as §1, §2

Assay [18] addresses T17, oligopeptide AGIFATYPSGHLDM (SEQ ID NO: 106).
T17 construct: Synthetic peptide, part of Loop C of AQP3
T17 peptide: AGIFATYPSGHLDM
Kind of assay: ELISA on coated peptide. The method, then: as §1, §2

Assay [19] addresses T18, oligopeptide TYPSGHLDM (SEQ ID NO: 96).
T18 construct: Synthetic peptide, part of Loop C of AQP3
T18 peptide: TYPSGHLDM
Put plainly: ELISA on coated peptide. The method, then: as §1, §2

For assay [20], the target named is T19, oligopeptide YPSGHLDM (SEQ ID NO: 97).
T19 construct: Synthetic peptide, part of Loop C of AQP3; first diluted in DMSO
T19 peptide: YPSGHLDM
Kind of assay: ELISA on coated peptide. As for the experimental part: as §1, §2

The target of assay [21] is T2, oligopeptide ATYPSGHLDM (SEQ ID NO: 1). Put plainly: ELISA on peptide SEQ ID NO:1, IgG, 50% binding response (FIG. 16A).

Residue numbers refer to the chain shown, from its start.

B1: Antibody E (antibody, mouse IgG2a, kappa, V domains shown)
VH: EVKLLESGAELVRPGASVTLSCKASGYTFTDYEMHWVKQTPVHGLEWIGGIDPESGGTGYNQKFKGKAILTADKSSSTAYMELRSLTSEDSAVYFCTRSGYYGSPLLDYWGQGTTLTVSS
VL: QIVLSQSPAIMSASLGERVTMTCTASSSVSSSYLHWYQQKPGSSPKLWIYSTSNLASGVPARFSGSGSGTSYSLTISSMEAEDAATYYCHQYHRSPPTFGAGTKLEIKR
notes: also called anti AQP3 antibody E; Antiboy E
With B1, the binding result in assay [1], in assay [2], in assay [3] and in assay [4] was “binds” throughout.

B2: Antibody K (antibody, mouse IgG2a, kappa, V domains shown)
VH: QVQLKQSGAELVRPGTSVKVSCKASGYAFTNYLIEWVKQRPGQGLEWIGVINPGSGGTNYNEKFKGKATLTADKSSSTAYMQLSSLTSEDSAVYFCARWGFYYAMDYWGQGTSVTVSS
VL: DIVMTQSPSSLSASLGERVSLTCRASQEISGYLSWLQQKPDGTIKRLIYAASTLDSGVPKRFSGSRSGSDYSLTISSLESEDFADYYCLQYASYPLTFGAGTKLEIKR
notes: also called anti AQP3 antibody K
As for B2, the binding result in assay [1] and in assay [2] was “binds” throughout.

B3: Antibody B (antibody, mouse IgG2a, kappa, V domains shown)
VH: EVQLVESGGDLVKPGGSLKLSCAASGFTFSSYGMSWVRQTPDKRLEWVATISRGSIYTYYPDSVKGRFTISRDNAKNTLYLQMSSLKSEDTAMYYCARLSLYDYDGARYTMDYWGQGTSVTVSS
VL: DIVMTQSPKFMSTSVGDRVSITCKASQDVGTAVAWYQQKPGQSPKLLIYWASTRHTGVPDRFTGSGSGTDFTLTISNVQSEDLADYFCQQYSSYHTFGAGTKLELKR
notes: also called anti AQP3 antibody B
With B3, the binding result in assay [1] and in assay [2] was “binds” throughout.

B4: Antibody F (antibody, mouse IgG2a, kappa, V domains shown)
VH: QVQLKESGPELVKPGASVKISCKASGYTFTDYYINWVKQRPGQGLEWIGWIFPGSGSTYYNEKFKGKATLTVDKSSSTAYMLLSSLTSEDSAVYFCADYGSSYRYFDVWGAGTTVTVSS
VL: DIVMTQSPAILSASPGEKVTMTCRASSSVSYMHWYQQKPGSSPKPWIYATSYLASGVPARFSGSGSGTSYSLTIGRVEAEDAATYYCQQWSSNPLTFGAGTKLELKR
notes: also called anti AQP3 antibody F; Antiboy F
Take B4: in [1], the binding result was “binds”.

B5: Antibody D (antibody, mouse IgG2a, kappa, V domains shown)
VH: EVQLQQSGAELVRPGASVTLSCKASGYTFTDYEMHWVQQTPVHGLEWIGGIDPETGGTGYNQKFKGKAILTADKSSSTAYMELRSLTSEDSAVYFCTRHGSYAMDYWGQGTSVTVSS
VL: DIVMTQSPKFMSTSVGDRVSITCKASQDVSTAVAWYQQKPGQSPKLLIYWASTRHTGVPDRFTGSGSGTDYTLTISSVQAEDLALYYCQQHYSTPPTFGGGTRLEIKR
notes: also called anti AQP3 antibody D
As to B5, the binding result in assay [1], in [3] and in assay [4] was “binds” throughout.

B6: Antibody A (antibody, mouse IgG2a, kappa, V domains shown)
VH: QVQLQQPGAELVRPGASVTLSCKASGYTFTDYEMHWVKQTPVHGLEWIGGVDPETGGTGYNQKFRGKAILTADKSSSTAYMELRSLTSEDSAVYYCARHGGSFYAMDYWGQGTSVTVSS
VL: B5 VL with R103K, I106L
notes: also called anti AQP3 antibody A
Consider B6, for which the binding result in assay [1] is given as “binds”.

B7: Antibody C (antibody, mouse IgG2a, kappa, V domains shown)
VH: QVQLKQSGAELARPGASVKLSCKASGYNFKSYGISWVKQRTGQGLEWIGEIYPGSGNTYYNEKLKGKATLTADKSSSTAYMELRSLTSEDSAVYFCARTYGYDSFPWFAYWGQGTLVTVSS
VL: DIVMTQAAPSVPVTPGESVSISCRSSKSLLHSNGNTYLYWFLQRPGQSPQLLIYRVSNLASGVPDRFSGSGSGTAFTLRISRVEAEDEGVYYCMQHLEYPFTFGAGTKLEIKR
notes: also called anti AQP3 antibody C
As to B7, the “binding signal (plate reader)” value in [5] was 2.81; in assay [6], 0.045; in assay [7] it was 0.271; in [8], 2.92; in [9], 0.047; in assay [10] it was 0.043. Besides, the “binding signal (plate reader)” value in assay [11] amounted to 0.044; in assay [12], 1.69; in assay [13], 0.048; in [14], 2.21; in [15], 2.8; in assay [16], 2.52. The “binding signal (plate reader)” value was 2.8 in assay [17], 2.97 in assay [18], 1.79 in [19] and 1.58 in assay [20]. Moreover, the binding result in assay [1], in assay [3] and in assay [4] was “binds” in each case. The EC50 (commonly the concentration giving half of the maximal effect) in assay [21] was ~0.1 µg/mL.
